From US20160272680A1 (Bristol-Myers Squibb, published 2016)
Bridge positions count the residues as written; N and C are the ends. Square brackets hold non-standard residues; d marks the D form. Hyp = O=C(O)[C@@H]1C[C@@H](O)CN1; NMeNle = CCCC[C@H](NC)C(=O)O; NMeA = CN[C@@H](C)C(=O)O; Dap = NC[C@H](N)C(=O)O

Assays:
hPDL1(19-239)-TVMV-His [1] = target: T1, hPDL1(19-239)-TVMV-His (human, UniProt Q9NZQ7 19-239); assay: HTRF competition of PD-1-Ig binding to PD-L1-His
T1 construct: Expressed in HEK293T cells; The text says amino acids 18-239, but the construct is named hPD-L1(19-239); The whole entry, including the TVMV site and His tag, is the protein used in the assay; also called PD-L1-TVMV-His; PD-L1-His
Protocol: Homogenous Time-Resolved Fluorescence (HTRF) Assays of Binding of Soluble PD-1 to Soluble PD-L1. Soluble PD-1 and soluble PD-L1 refers to proteins with carboxyl-end truncations that remove the transmembrane-spanning regions and are fused to heterologous sequences, specifically the Fc portion of the human immunoglobuling G sequence (Ig) or the hexahistidine epitope tag (His). All binding studies were performed in an HTRF assay buffer consisting of dPBS supplemented with 0.1% (w/v) bovine serum albumin and 0.05% (v/v) Tween-20. For the PD-1-Ig/PD-L1-His binding assay, inhibitors were pre-incubated with PD-L1-His (10 nM final) for 15 m in 4 μl of assay buffer, followed by addition of PD-1-Ig (20 nM final) in 1 μl of assay buffer and further incubation for 15 m. PD-L1 fusion proteins from either human, cynomologous macaques, mouse, or other species were used. HTRF detection was achieved using europium crypate-labeled anti-Ig monoclonal antibody (1 nM final) and allophycocyanin (APC) labeled anti-His monoclonal antibody (20 nM final). Antibodies were diluted in HTRF detection buffer and 5 μl was dispensed on top of binding reaction. The reaction was allowed to equilibrate for 30 minutes and signal (665 nm/620 nm ratio) was obtained using an EnVision fluorometer. Additional binding assays were established between PD-1-Ig/PD-L2-His (20 and 5 nM, respectively), CD80-His/PD-L1-Ig (100 and 10 nM, respectively) and CD80-His/CTLA4-Ig (10 and 5 nM, respectively). Binding/competition studies between biotinylated Compound No. 71 and human PD-L1-His were performed as follows. Macrocyclic peptide inhibitors were pre-incubated with PD-L1-His (10 nM final) for 60 minutes in 4 μl of assay buffer followed by addition of biotinylated Compound No. 71 (0.5 nM final) in 1 μl of assay buffer. Binding was allowed to equilibrate for 30 minutes followed by addition of europium crypated labeled Streptavidin (2.5 pM final) and APC-labeled anti-His (20 nM final) in 5 μl of HTRF buffer. […]

hPDL1(19-239)-TVMV-His [2] = target: T1, hPDL1(19-239)-TVMV-His; assay: HTRF competition of PD-1-Ig binding to PD-L1-His; code B=0.004-0.0099 µM
Protocol: Homogenous Time-Resolved Fluorescence (HTRF) Assays of Binding of Soluble PD-1 to Soluble PD-L1. Soluble PD-1 and soluble PD-L1 refers to proteins with carboxyl-end truncations that remove the transmembrane-spanning regions and are fused to heterologous sequences, specifically the Fc portion of the human immunoglobuling G sequence (Ig) or the hexahistidine epitope tag (His). All binding studies were performed in an HTRF assay buffer consisting of dPBS supplemented with 0.1% (w/v) bovine serum albumin and 0.05% (v/v) Tween-20. For the PD-1-Ig/PD-L1-His binding assay, inhibitors were pre-incubated with PD-L1-His (10 nM final) for 15 m in 4 μl of assay buffer, followed by addition of PD-1-Ig (20 nM final) in 1 μl of assay buffer and further incubation for 15 m. PD-L1 fusion proteins from either human, cynomologous macaques, mouse, or other species were used. HTRF detection was achieved using europium crypate-labeled anti-Ig monoclonal antibody (1 nM final) and allophycocyanin (APC) labeled anti-His monoclonal antibody (20 nM final). Antibodies were diluted in HTRF detection buffer and 5 μl was dispensed on top of binding reaction. The reaction was allowed to equilibrate for 30 minutes and signal (665 nm/620 nm ratio) was obtained using an EnVision fluorometer. Additional binding assays were established between PD-1-Ig/PD-L2-His (20 and 5 nM, respectively), CD80-His/PD-L1-Ig (100 and 10 nM, respectively) and CD80-His/CTLA4-Ig (10 and 5 nM, respectively). Binding/competition studies between biotinylated Compound No. 71 and human PD-L1-His were performed as follows. Macrocyclic peptide inhibitors were pre-incubated with PD-L1-His (10 nM final) for 60 minutes in 4 μl of assay buffer followed by addition of biotinylated Compound No. 71 (0.5 nM final) in 1 μl of assay buffer. Binding was allowed to equilibrate for 30 minutes followed by addition of europium crypated labeled Streptavidin (2.5 pM final) and APC-labeled anti-His (20 nM final) in 5 μl of HTRF buffer. The reaction was allowed to equilibrate for 30 m and signal (665 nm/620 nm ratio) was obtained using an EnVision fluorometer.

T1 sequence (Q9NZQ7 other isoform, or with tags, fused parts or gaps limits assumed): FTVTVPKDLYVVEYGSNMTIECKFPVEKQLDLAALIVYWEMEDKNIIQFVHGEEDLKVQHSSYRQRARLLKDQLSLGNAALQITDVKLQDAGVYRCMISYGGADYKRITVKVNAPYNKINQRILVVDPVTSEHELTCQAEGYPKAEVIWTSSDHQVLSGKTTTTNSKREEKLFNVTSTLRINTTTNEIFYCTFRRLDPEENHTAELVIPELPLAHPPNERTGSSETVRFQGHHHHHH

IC50 (hPDL1(19-239)-TVMV-His [1]) [nM] | IC50 (hPDL1(19-239)-TVMV-His [2]) [nM] | Binder
 | 4 to 9.9 | {CH2CO}-Y[NMeA]NP[Dap]L[Hyp]WGW[NMeNle][NMeNle]LCG-{piperazin‑2‑one} (thioether N-14, Macrocyclic peptide) [Example 13114]
 | 4 to 9.9 | {CH2CO}-Y[NMeA]NP[Dap]L[Hyp]WGW[NMeNle][NMeNle]LCG-phenylpiperazine (thioether N-14, Macrocyclic peptide) [Example 13117]

More lines, now with the values behind:

Binder | IC50 (hPDL1(19-239)-TVMV-His [1]) [nM] | IC50 (hPDL1(19-239)-TVMV-His [2]) [nM]
{CH2CO}-Y[NMeA]NP[Dap]L[Hyp]WGW[NMeNle][NMeNle]LCG-{N‑(3-aminopropyl)morpholine amide} (thioether N-14, Macrocyclic peptide) [Example 13093] | 8.17 | 
{CH2CO}-Y[NMeA]NP[Dap]L[Hyp]WGW[NMeNle][NMeNle]LCG-{4‑phenylpiperidine amide} (thioether N-14, Macrocyclic peptide) [Example 13088] | 50 | 
{CH2CO}-Y[NMeA]NP[Dap]L[Hyp]WGW[NMeNle][NMeNle]LCG-{methyl 3‑aminopropionate} (thioether N-14, Macrocyclic peptide) [Example 13105] | 10 | 
